Our source for the stoichiometry N values is publication PMC4383751.

The target in the experiment is wild-type pyruvate kinase isoform M2 (PKM2^WT) (human) (UniProt P14618). Kind of experiment: SEC; gel filtration on Superdex 200 10/300 GL, in the absence of FBP; low protein concentration (less than 0.2 mg/mL); similar protein concentrations and conditions for all proteins; oxalate added in a further run (Fig. S1F).

The stoichiometry N is the number of molecules, sites or subunits per partner or assembly.

wild-type pyruvate kinase isoform M2 (PKM2^WT), P14618 1-531 (enzyme; other documents disagree on this pair), sequence (P14618 whole entry, canonical isoform): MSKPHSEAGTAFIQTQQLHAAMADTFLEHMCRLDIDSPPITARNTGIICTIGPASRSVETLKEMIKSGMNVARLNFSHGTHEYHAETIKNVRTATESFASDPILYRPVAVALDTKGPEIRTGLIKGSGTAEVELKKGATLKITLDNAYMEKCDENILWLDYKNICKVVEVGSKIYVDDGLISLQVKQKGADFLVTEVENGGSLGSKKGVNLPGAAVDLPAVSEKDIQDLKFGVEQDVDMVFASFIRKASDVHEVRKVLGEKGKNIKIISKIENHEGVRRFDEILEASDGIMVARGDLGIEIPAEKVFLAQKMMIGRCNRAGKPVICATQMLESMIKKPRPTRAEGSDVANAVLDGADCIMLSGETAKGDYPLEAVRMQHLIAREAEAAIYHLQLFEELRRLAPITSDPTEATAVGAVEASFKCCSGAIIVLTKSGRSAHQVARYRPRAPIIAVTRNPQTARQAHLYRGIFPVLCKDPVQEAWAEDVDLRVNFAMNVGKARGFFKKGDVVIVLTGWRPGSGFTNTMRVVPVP

Turning to “wild-type pyruvate kinase isoform M2 (PKM2^WT), P14618 1-531 (enzyme; other documents disagree on this pair)”, the stoichiometry N came out at 2.
